The test system of series [1] is HeLa Kyoto. Description: solubility change mitosis vs G1/S (difference of NP-40 vs SDS log2 ratios) (log2 ratio difference); higher = more soluble in mitosis.
Series [2] concerns HeLa Kyoto. In words: solubility in G1/S (NP-40 vs SDS abundance) (log2 ratio); higher = more soluble. The following applies: cell cycle stage: G1/S.
Series [3] concerns HeLa Kyoto. Description: melting temperature (median over replicates), in situ; higher = more thermally stable.
Series [4] concerns HeLa Kyoto. In words: thermal stability score vs G1/S (z-score of summed log2 fold changes over temperatures); higher = more thermally stable than in G1/S.
Setting [5] is: cell cycle stage: early G1 (4.5 h after nocodazole release).
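Wherever melting temperature (median over replicates), in situ is given: HeLa Kyoto cells synchronized by double thymidine or nocodazole block, proteins quantified by TMT10plex mass spectrometry, three independent biological replicates.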
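Wherever solubility change mitosis vs G1/S (difference of NP-40 vs SDS log2 ratios) is given: synchronized HeLa Kyoto cells (double thymidine block for G1/S, nocodazole release for mitosis), protein amounts in NP-40 versus SDS lysates quantified by mass spectrometry, three biological replicates.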
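Wherever solubility in G1/S (NP-40 vs SDS abundance) is given: HeLa Kyoto cells arrested at G1/S by double thymidine block, proteins quantified by TMT10plex mass spectrometry in mild NP-40 versus SDS extracts, three biological replicates.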
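Wherever thermal stability score vs G1/S (z-score of summed log2 fold changes over temperatures) is given: synchronized HeLa Kyoto cells, proteins quantified by TMT10plex mass spectrometry, three biological replicates, mitosis taken 0.5 h after nocodazole release, G1/S directly after double thymidine block.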

As to “MSDLLLLGLIGGLTLLLLLTLLAFAGYSGLLAGVEVSAGSPPIRNVTVAYKFHMGLYGETGRLFTESCSISPKLRSIAVYYDNPHMVPPDKCRCAVGSILSEGEESPSPELIDLYQKFGFKVFSFPAPSHVVTATFPYTTILSIWLATRRVHPALDTYIKERKLCAYPRLEIYQEDQIHFMCPLARQGDFYVPEMKETEWKWRGLVEAIDTQVDGTGADTMSDTSSVSLEVSPGSRETSAATLSPGASSRGWDDGDTRSEHSYSESGASGSSFEELDLEGEGPLGESRLDPGTEPLGTTKWLWEPTAPEKGKE [TEX264]”, the “solubility change mitosis (log2)” value in series [1] is -0.257. Further, in series [2], the “solubility in G1/S (log2)” value was -0.0622. The melting temperature in series [3] (cell cycle stage: G1/S) and in series [3] (cell cycle stage: mitosis) was 51.2 °C each time. For the same sequence, the values for the thermal stability score in series [4] (setting [5]) and in series [4] (cell cycle stage: mitosis) were 0.0754 and -0.347, respectively.
For the sequence “MSDNGELEDKPPAPPVRMSSTIFSTGGKDPLSANHSLKPLPSVPEEKKPRHKIISIFSGTEKGSKKKEKERPEISPPSDFEHTIHVGFDAVTGEFTGMPEQWARLLQTSNITKLEQKKNPQAVLDVLKFYDSNTVKQKYLSFTPPEKDGFPSGTPALNAKGTEAPAVVTEEEDDDEETAPPVIAPRPDHTKSIYTRSVIDPVPAPVGDSHVDGAAKSLDKQKKKTKMTDEEIMEKLRTIVSIGDPKKKYTRYEKIGQGASGTVFTATDVALGQEVAIKQINLQKQPKKELIINEILVMKELKNPNIVNFLDSYLVGDELFVVMEYLAGGSLTDVVTETCMDEAQIAAVCRECLQALEFLHANQVIHRDIKSDNVLLGMEGSVKLTDFGFCAQITPEQSKRSTMVGTPYWMAPEVVTRKAYGPKVDIWSLGIMAIEMVEGEPPYLNENPLRALYLIATNGTPELQNPEKLSPIFRDFLNRCLEMDVEKRGSAKELLQHPFLKLAKPLSSLTPLIMAAKEAMKSNR [PAK2]”, the “solubility change mitosis (log2)” value in series [1] is -0.119. In series [2], the “solubility in G1/S (log2)” value was 0.152. Further, the melting temperature is 54.9 °C in series [3] (cell cycle stage: G1/S) and 54.6 °C in series [3] (cell cycle stage: mitosis). Besides, the thermal stability score in series [4] (setting [5]) is -1.97; in series [4] (cell cycle stage: mitosis) it was -1.45.
On to “MSEAGGRGCGSPVPQRARWRLVAATAAFCLVSATSVWTAGAEPMSREEKQKLGNQVLEMFDHAYGNYMEHAYPADELMPLTCRGRVRGQEPSRGDVDDALGKFSLTLIDSLDTLVVLNKTKEFEDAVRKVLRDVNLDNDVVVSVFETNIRVLGGLLGGHSLAIMLKEKGEYMQWYNDELLQMAKQLGYKLLPAFNTTSGLPYPRINLKFGIRKPEARTGTETDTCTACAGTLILEFAALSRFTGATIFEEYARKALDFLWEKRQRSSNLVGVTINIHTGDWVRKDSGVGAGIDSYYEYLLKAYVLLGDDSFLERFNTHYDAIMRYISQPPLLLDVHIHKPMLNARTWMDALLAFFPGLQVLKGDIRPAIETHEMLYQVIKKHNFLPEAFTTDFRVHWAQHPLRPEFAESTYFLYKATGDPYYLEVGKTLIENLNKYARVPCGFAAMKDVRTGSHEDRMDSFFLAEMFKYLYLLFADKEDIIFDIEDYIFTTEAHLLPLWLSTTNQSISKKNTTSEYTELDDSNFDWTCPNTQILFPNDPLYAQSIREPLKNVVDKSCPRGIIRVEESFRSGAKPPLRARDFMATNPEHLEILKKMGVSLIHLKDGRVQLVQHAIQAASSIDAEDGLRFMQEMIELSSQQQKEQQLPPRAVQIVSHPFFGRVVLTAGPAQFGLDLSKHKETRGFVASSKPSNGCSELTNPEAVMGKIALIQRGQCMFAEKARNIQNAGAIGGIVIDDNEGSSSDTAPLFQMAGDGKDTDDIKIPMLFLFSKEGSIILDAIREYEEVEVLLSDKAKDRDPEMENEEQPSSENDSQNQSGEQISSSSQEVDLVDQESSEENSLNSHPESLSLADMDNAASISPSEQTSNPTENHETTNLNGECTDLDNQLQEQSETEEDSNPNVSWGKKVQPIDSILADWNEDIEAFEMMEKDEL [EDEM3]”, for which, in series [1], the “solubility change mitosis (log2)” value was -0.156. Also, in series [2], the “solubility in G1/S (log2)” value came out at 0.311. The melting temperature was 53.5 °C in series [3] (cell cycle stage: G1/S) and 53.7 °C in series [3] (cell cycle stage: mitosis). The results for the thermal stability score in series [4] (setting [5]) and in series [4] (cell cycle stage: mitosis) were 0.67 and 0.929, respectively.
For the sequence “MSEAPRFFVGPEDTEINPGNYRHFFHHADEDDEEEDDSPPERQIVVGICSMAKKSKSKPMKEILERISLFKYITVVVFEEEVILNEPVENWPLCDCLISFHSKGFPLDKAVAYAKLRNPFVINDLNMQYLIQDRREVYSILQAEGILLPRYAILNRDPNNPKECNLIEGEDHVEVNGEVFQKPFVEKPVSAEDHNVYIYYPTSAGGGSQRLFRKIGSRSSVYSPESNVRKTGSYIYEEFMPTDGTDVKVYTVGPDYAHAEARKSPALDGKVERDSEGKEVRYPVILNAREKLIAWKVCLAFKQTVCGFDLLRANGQSYVCDVNGFSFVKNSMKYYDDCAKILGNIVMRELAPQFHIPWSIPLEAEDIPIVPTTSGTMMELRCVIAVIRHGDRTPKQKMKMEVRHQKFFDLFEKCDGYKSGKLKLKKPKQLQEVLDIARQLLMELGQNNDSEIEENKPKLEQLKTVLEMYGHFSGINRKVQLTYLPHGCPKTSSEEEDSRREEPSLLLVLKWGGELTPAGRVQAEELGRAFRCMYPGGQGDYAGFPGCGLLRLHSTYRHDLKIYASDEGRVQMTAAAFAKGLLALEGELTPILVQMVKSANMNGLLDSDSDSLSSCQQRVKARLHEILQKDRDFTAEDYEKLTPSGSISLIKSMHLIKNPVKTCDKVYSLIQSLTSQIRHRMEDPKSSDIQLYHSETLELMLRRWSKLEKDFKTKNGRYDISKIPDIYDCIKYDVQHNGSLKLENTMELYRLSKALADIVIPQEYGITKAEKLEIAKGYCTPLVRKIRSDLQRTQDDDTVNKLHPVYSRGVLSPERHVRTRLYFTSESHVHSLLSILRYGALCNESKDEQWKRAMDYLNVVNELNYMTQIVIMLYEDPNKDLSSEERFHVELHFSPGAKGCEEDKNLPSGYGYRPASRENEGRRPFKIDNDDEPHTSKRDEVDRAVILFKPMVSEPIHIHRKSPLPRSRKTATNDEESPLSVSSPEGTGTWLHYTSGVGTGRRRRRSGEQITSSPVSPKSLAFTSSIFGSWQQVVSENANYLRTPRTLVEQKQNPTVGSHCAGLFSTSVLGGSSSAPNLQDYARTHRKKLTSSGCIDDATRGSAVKRFSISFARHPTNGFELYSMVPSICPLETLHNALSLKQVDEFLASIASPSSDVPRKTAEISSTALRSSPIMRKKVSLNTYTPAKILPTPPATLKSTKASSKPATSGPSSAVVPNTSSRKKNITSKTETHEHKKNTGKKK [PPIP5K2]”, the “solubility change mitosis (log2)” value in series [1] is -0.068. In series [2], the “solubility in G1/S (log2)” value worked out at 0.0594. Moreover, the melting temperature in series [3] (cell cycle stage: G1/S) was 52.5 °C; in series [3] (cell cycle stage: mitosis) it was 52.6 °C. Also, the thermal stability score in series [4] (setting [5]) was determined as 0.0139; in series [4] (cell cycle stage: mitosis), 0.108.
For “MSEASSEDLVPPLEAGAAPYREEEEAAKKKKEKKKKSKGLANVFCVFTKGKKKKGQPSSAEPEDAAGSRQGLDGPPPTVEELKAALERGQLEAARPLLALERELAAAAAAGGVSEEELVRRQSKVEALYELLRDQVLGVLRRPLEAPPERLRQALAVVAEQEREDRQAAAAGPGTSGLAATRPRRWLQLWRRGVAEAAEERMGQRPAAGAEVPESVFLHLGRTMKEDLEAVVERLKPLFPAEFGVVAAYAESYHQHFAAHLAAVAQFELCERDTYMLLLWVQNLYPNDIINSPKLVGELQGMGLGSLLPPRQIRLLEATFLSSEAANVRELMDRALELEARRWAEDVPPQRLDGHCHSELAIDIIQITSQAQAKAESITLDLGSQIKRVLLVELPAFLRSYQRAFNEFLERGKQLTNYRANVIANINNCLSFRMSMEQNWQVPQDTLSLLLGPLGELKSHGFDTLLQNLHEDLKPLFKRFTHTRWAAPVETLENIIATVDTRLPEFSELQGCFREELMEALHLHLVKEYIIQLSKGRLVLKTAEQQQQLAGYILANADTIQHFCTQHGSPATWLQPALPTLAEIIRLQDPSAIKIEVATYATCYPDFSKGHLSAILAIKGNLSNSEVKRIRSILDVSMGAQEPSRPLFSLIKVG [TNFAIP2]”, the “solubility change mitosis (log2)” value in series [1] is -0.0517. The “solubility in G1/S (log2)” value in series [2] worked out at 0.296. Further, the melting temperature in series [3] (cell cycle stage: G1/S) came to 50.4 °C; in series [3] (cell cycle stage: mitosis), 48.2 °C. Moreover, the thermal stability score in series [4] (setting [5]) worked out at 0.545; in series [4] (cell cycle stage: mitosis) it was 1.06.
